Laboratory results reported in publication PMC3419070, “Identification of novel mitosis regulators through data mining with human centromere/kinetochore proteins as group queries” (BMC Cell Biology, 2012).

Molecular target: T1, purified recombinant 6×His-TRIP13 (human, UniProt Q15645 1-432)
T1 construct: TRIP13, human AAA-ATPase; full-length cDNA cloned by the Gateway system; The host is probably E. coli: the methods name destination vectors for E. coli or mammalian cells; also called His-tagged TRIP13
T1 sequence (looked up): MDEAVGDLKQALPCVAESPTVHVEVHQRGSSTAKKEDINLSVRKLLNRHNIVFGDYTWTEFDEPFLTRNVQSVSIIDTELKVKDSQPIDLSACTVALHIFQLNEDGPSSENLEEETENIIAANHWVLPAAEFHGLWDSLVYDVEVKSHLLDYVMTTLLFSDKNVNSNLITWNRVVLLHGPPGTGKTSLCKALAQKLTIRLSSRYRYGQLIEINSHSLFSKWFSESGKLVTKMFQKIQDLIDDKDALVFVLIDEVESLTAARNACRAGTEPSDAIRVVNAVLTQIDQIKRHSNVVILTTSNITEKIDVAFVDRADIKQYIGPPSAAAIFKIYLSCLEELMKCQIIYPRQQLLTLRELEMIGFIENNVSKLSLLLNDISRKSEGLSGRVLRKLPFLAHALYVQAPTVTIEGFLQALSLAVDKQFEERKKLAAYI
Assay: pull-down; in vitro binding of recombinant proteins: His-TRIP13 at 100 nM, GST-p31^comet at increasing concentrations; Probond nickel beads, washed; blots with anti-6×His and anti-GST antibodies
Details: both partners purified

- binding result: binds
B1: purified recombinant GST-p31^comet (natural protein, human, UniProt Q15013 1-274, looked up)
chain: MAAPEAEVLSSAAVPDLEWYEKSEETHASQIELLETSSTQEPLNASEAFCPRDCMVPVVFPGPVSQEGCCQFTCELLKHIMYQRQQLPLPYEQLKHFYRKPSPQAEEMLKKKPRATTEVSSRKCQQALAELESVLSHLEDFFARTLVPRVLILLGGNALSPKEFYELDLSLLAPYSVDQSLSTAACLRRLFRAIFMADAFSELQAPPLMGTVVMAQGHRNCGEDWFRPKLNYRVPSRGHKLTVTLSCGRPSIRTTAWEDYIWFQAPVTFKGFRE
notes: p31^comet (MAD2L1BP), human mitotic checkpoint silencing protein; full-length cDNA cloned by the Gateway system; The host is probably E. coli: the methods name destination vectors for E. coli or mammalian cells; also called MAD2L1BP
